{"source": "patent US8728754B1", "about": "“Use of proteins isolated from Pseudomonas to control molluscs” (priority 2013, dated 2014)", "tested_on": "mussels", "assay": "Mussel bioassay in scintillation vials", "type": "in vivo", "procedure": "Mussel bioassays were performed in twenty milliliter scintillation vials. Ten small mussels (approximately 1 cm long) were incubated in the mussel water (10 mL) for 24 hr first, then the mussel water (10 mL) was changed freshly before test cell lysis was added. Cell lysis or proteins (maximal 500 μL) was added into each vial. After 24 hr, the mussel water with cell lysis or proteins was changed with clean mussel water. Then, mussel water was changed every 24 hr with clean mussel water. Dead mussels were taken away every day and mussel mortality was calculated by number of dead mussel divided by the number of total mussels.", "data": [{"molecule": "dihydrolipoamide dehydrogenase (protein, UniProt P14218 2-478, looked up, Molluscicidal protein isolated from Pseudomonas CL145A, identified as dihydrolipoamide dehydrogenase) Dihydrolipoyl dehydrogenase: SQKFDVVVIGAGPGGYVAAIRAAQLGLKTACIEKYIGKEGKVALGGTCLNVGCIPSKALLDSSYKYHEAKEAFKVHGIEAKGVTIDVPAMVARKANIVKNLTGGIATLFKANGVTSFEGHGKLLANKQVEVTGLDGKTQVLEAENVIIASGSRPVEIPPAPLSDDIIVDSTGALEFQAVPKKLGVIGAGVIGLELGSVWARLGAEVTVLEALDKFLPAADEQIAKEALKVLTKQGLNIRLGARVTASEVKKKQVTVTFTDANGEQKETFDKLIVAVGRRPVTTDLLAADSGVTLDERGFIYVDDHCKTSVPGVFAIGDVVRGAMLAHKASEEGVMVAERIAGHKAQMNYDLIPSVIYTHPEIAWVGKTEQTLKAEGVEVNVGTFPFAASGRAMAANDTTGLVKVIADAKTDRVLGVHVIGPSAAELVQQGAIGMEFGTSAEDLGMMVFSHPTLSEALHEAALAVNGHAIHIANRKKR", "values": [{"measurement": "Mussel mortality at 7th day", "setting": "5 ppm, 7th day", "value": 50, "unit": "%"}, {"measurement": "Activity in mussel bioassay of proteins and fractions dosed after gel analysis", "setting": "in vivo", "value": "active"}]}]}
